In patent US11541126B1, “Anti-ASGR1 antibody TLR8 agonist comprising conjugates and uses thereof” (Silverback Therapeutics, Inc., priority 2020, dated 2023):

T1: HepG2 cells (which express ASGR1) (Homo sapiens, UniProt P07306)
T1 construct: endogenous in cells; host or cells: HepG2
T1 sequence (P07306 1-291): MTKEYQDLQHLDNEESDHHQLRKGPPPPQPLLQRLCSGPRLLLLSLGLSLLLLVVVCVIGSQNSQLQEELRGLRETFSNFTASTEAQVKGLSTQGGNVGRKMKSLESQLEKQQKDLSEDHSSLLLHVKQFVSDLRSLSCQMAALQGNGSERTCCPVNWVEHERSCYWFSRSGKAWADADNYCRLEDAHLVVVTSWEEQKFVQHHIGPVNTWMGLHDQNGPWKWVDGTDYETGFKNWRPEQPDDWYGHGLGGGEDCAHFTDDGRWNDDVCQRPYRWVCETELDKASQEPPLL


biological target: T1, HepG2 cells (which express ASGR1); assay: Guava HepG2 cell binding screen of humanized anti-ASGR1 clones; set-up: unit not given here; conditions: humanized G2D clones (Table 5); two numbers per cell, not explained
Method: Hybridomas producing monoclonal antibodies (mAbs) specific for human ASGR1 were prepared from Balb/C mice immunized with ASGR1-AviHis at a service provider using their propriety protocol. Antibody heavy and light chain sequences were obtained, amplified, and cloned. Clone supernatants containing the expressed mAbs were screened for binding to a human ASGR1-IgG1Fc fusion protein, and those with a positive signal as measured by enzyme linked immunosorbent assay (ELISA) were screened for cell binding on HepG2 cells (which express ASGR1).

| Molecule | Guava HepG2 Screen |
| --- | --- |
| hzG2D-33: humanized G2D clone; "G2D VL region ... of clones 1-16, 19-21, 26-29, 31, and 33 ... grafted into the human germline sequence VKI-L1 with JK4" (antibody, V domains shown, Synthetic sequence hzG2.51D VH R66K, V67A, T68S, I69L, R71V, R84T, A93T, R94S; Synthetic sequence hzG2D VLa) VH: QVQLVQSGAEVKKPGASVKVSCKASGYTFTGYYMHWVRQAPGQRLEWMGRINPNNGATNYNQNFKDKASLTVDTSASTAYMELSSLTSEDTAVYYCTSVNFYYWGQGTTVTVSS VL: DIQMTQSPSSLSASVGDRVTITCKASQVINSYLSWFQQKPGKAPKSLIYRANTLVDGVPSRFSGSGSGTDFTLTISSLQPEDFATYYCLQYAEFPYTFGGGTKVEIK | 164/85 |
| hzG2D-34: humanized G2D clone; "G2D VL region ... of clones 22, 23, 30, 32, and 34-37 ... grafted into the human germline sequence VKI-O2 with JK4" (antibody, V domains shown, Synthetic sequence hzG2.51D VH R66K, V67A, T68S, I69L, R71V, R84T, A93T, R94S; Synthetic sequence hzG2D VLb) VH: QVQLVQSGAEVKKPGASVKVSCKASGYTFTGYYMHWVRQAPGQRLEWMGRINPNNGATNYNQNFKDKASLTVDTSASTAYMELSSLTSEDTAVYYCTSVNFYYWGQGTTVTVSS VL: DIQMTQSPSSLSASVGDRVTITCKASQVINSYLSWYQQKPGKAPKLLIYRANTLVDGVPSRFSGSGSGTDFTLTISSLQPEDFATYYCLQYAEFPYTFGGGTKVEIK | 194/109 |
| hzG2D-3: humanized G2D clone; "G2D VL region ... of clones 1-16, 19-21, 26-29, 31, and 33 ... grafted into the human germline sequence VKI-L1 with JK4" (antibody, V domains shown, Synthetic sequence hzG2.45D VH A93T, R94S, V109L; Synthetic sequence hzG2D VLa) VH: QVQLVQSGAEVKKPGASVKVSCKASGYTFTGYYMHWVRQAPGQRLEWMGRINPNNGATNYNQNFKDRVTITRDTSASTAYMELSSLRSEDTAVYYCTSVNFYYWGQGTTLTVSS VL: DIQMTQSPSSLSASVGDRVTITCKASQVINSYLSWFQQKPGKAPKSLIYRANTLVDGVPSRFSGSGSGTDFTLTISSLQPEDFATYYCLQYAEFPYTFGGGTKVEIK | 131/95 |

Other lines, results leading:

| Guava HepG2 Screen | Molecule |
| --- | --- |
| 38/20 | hzG2D-2: humanized G2D clone; "G2D VL region ... of clones 1-16, 19-21, 26-29, 31, and 33 ... grafted into the human germline sequence VKI-L1 with JK4" (antibody, V domains shown, Synthetic sequence hzG2.1D VH T28S, V109L; Synthetic sequence hzG2D VLa) VH: QVQLVQSGAEVKKPGASVKVSCKASGYSFTGYYMHWVRQAPGQRLEWMGRINPNNGATNYNQNFKDRVTITRDTSASTAYMELSSLRSEDTAVYYCARVNFYYWGQGTTLTVSS VL: DIQMTQSPSSLSASVGDRVTITCKASQVINSYLSWFQQKPGKAPKSLIYRANTLVDGVPSRFSGSGSGTDFTLTISSLQPEDFATYYCLQYAEFPYTFGGGTKVEIK |
| 55/22 | hzG2D-4: humanized G2D clone; "G2D VL region ... of clones 1-16, 19-21, 26-29, 31, and 33 ... grafted into the human germline sequence VKI-L1 with JK4" (antibody, V domains shown, Synthetic sequence hzG2.39D VH R66K, V67A, V109L; Synthetic sequence hzG2D VLa) VH: QVQLVQSGAEVKKPGASVKVSCKASGYTFTGYYMHWVRQAPGQRLEWMGRINPNNGATNYNQNFKDKATITRDTSASTAYMELSSLRSEDTAVYYCARVNFYYWGQGTTLTVSS VL: DIQMTQSPSSLSASVGDRVTITCKASQVINSYLSWFQQKPGKAPKSLIYRANTLVDGVPSRFSGSGSGTDFTLTISSLQPEDFATYYCLQYAEFPYTFGGGTKVEIK |
